Results on 5 molecules are retold here after patent US20260266848A1, “COMPOSITIONS AND METHODS FOR DIAGNOSING AND TREATING DYSTONIA” (Duke University, priority 2023, published 2026).

One experiment has as its system DYT-TOR1A MEF EVs. The experiment can be described thus: Quantitative LC-MS/MS proteomics of EVs from drug-treated DYT-TOR1A MEF cultures (ritonavir, salubrinal). Type of experiment: cell-based, mouse. Also noted: key to RTV Corrective Direction / RTV Corrective Direction, Grwd1 / RTV Corrective Direction, Srrm2 / RTV Corrective Direction, Rbm17 / RTV Corrective Direction, Dcaf8 / RTV Corrective Direction, Edil3 / RTV Corrective Direction, Timp3 / RTV Corrective Direction, Heatr3 / RTV Corrective Direction, Brd4 / RTV Corrective Direction, P3h4 / RTV Corrective Direction, Pacsin3 / RTV Corrective Direction, Naa50 / RTV Corrective Direction, Lpar6 / RTV Corrective Direction, Ndrg1 / RTV Corrective Direction, Kntc1 / RTV Corrective Direction, Cdk11b / RTV Corrective Direction, Sumo1 / RTV Corrective Direction, Lsm4 / RTV Corrective Direction, Hmga2 / RTV Corrective Direction, Cstf1 / RTV Corrective Direction, Tes / RTV Corrective Direction, Sbno1 / RTV Corrective Direction, Unc119b / RTV Corrective Direction, Cfdp1 / RTV Corrective Direction, Sec61b: YES = protein abundance effect opposite to DYT/WT. The settings on record: EV protein abundance; for RTV Corrective Direction: DYT + RTV (ritonavir) vs DYT, direction compared with DYT/WT; for DYT + RTV/DYT Cohen's d: ritonavir (RTV)-treated DYT vs DYT.

The test system of another experiment is WT MEF EVs. The experiment in a line: Quantitative LC-MS/MS proteomics of EVs from ISRIB-treated WT MEF cultures. Type of experiment: cell-based, mouse. Also noted: key to ISRIB and DYT Parallel Direction / ISRIB and DYT Parallel Direction, Ctdsp1 / ISRIB and DYT Parallel Direction, Pcdh19 / ISRIB and DYT Parallel Direction, Tspan7 / ISRIB and DYT Parallel Direction, Myo1e / ISRIB and DYT Parallel Direction, Plpp3 / ISRIB and DYT Parallel Direction, Sh3bp4 / ISRIB and DYT Parallel Direction, Dnajc7 / ISRIB and DYT Parallel Direction, Drg1 / ISRIB and DYT Parallel Direction, Maea: YES = protein abundance effect similar to DYT/WT. The following applies: EV protein abundance; for WT + ISRIB/WT Cohen's d: ISRIB-treated WT vs WT; for ISRIB and DYT Parallel Direction: WT + ISRIB vs WT, direction compared with DYT/WT.

B1: Wars (protein, UniProt P32921 1-481, looked up)
Tryptophan--tRNA ligase, …: MADMPSGESCTSPLELFNSIATQGELVRSLKAGNAPKDEIDSAVKMLLSLKMSYKAAMGEEYKAGCPPGNPTAGRNCDSDATKASEDFVDPWTVRTSSAKGIDYDKLIVQFGSSKIDKELINRIERATGQRPHRFLRRGIFFSHRDMNQILDAYENKKPFYLYTGRGPSSEAMHLGHLVPFIFTKWLQDVFNVPLVIQMSDDEKYLWKDLTLEQAYSYTVENAKDIIACGFDINKTFIFSDLEYMGQSPGFYRNVVKIQKHVTFNQVKGIFGFTDSDCIGKISFPAVQAAPSFSNSFPKIFRDRTDIQCLIPCAIDQDPYFRMTRDVAPRIGHPKPALLHSTFFPALQGAQTKMSASDPNSSIFLTDTAKQIKSKVNKHAFSGGRDTVEEHRQFGGNCEVDVSFMYLTFFLEDDDRLEQIRKDYTSGAMLTGELKKTLIDVLQPLIAEHQARRKAVTEETVKEFMTPRQLSFHFQCFCFDT
For B1, in the experiment on DYT-TOR1A MEF EVs, the “RTV Corrective Direction” value is on record as “YES” and the “DYT + RTV/DYT Cohen's d” value turned out to be 4.38. Moreover, in the experiment with WT MEF EVs, the “WT + ISRIB/WT Cohen's d” value is reported as −1.03; the “ISRIB and DYT Parallel Direction” value was “YES”.

B2: Megf10 (protein, UniProt Q6DIB5 26-1147, looked up)
Multiple epidermal growth …: LNLEDPNVCSHWESYSVTVQESYPHPFDQIYYTSCTDILNWFKCTRHRISYRTAYRHGEKTMYRRKSQCCPGFYESRDMCVPHCADKCVHGRCIAPNTCQCEPGWGGTNCSSACDGDHWGPHCSSRCQCKNRALCNPITGACHCAAGYRGWRCEDRCEQGTYGNDCHQRCQCQNGATCDHITGECRCSPGYTGAFCEDLCPPGKHGPHCEQRCPCQNGGVCHHVTGECSCPSGWMGTVCGQPCPEGRFGKNCSQECQCHNGGTCDAATGQCHCSPGYTGERCQDECPVGSYGVRCAEACRCVNGGKCYHVSGTCLCEAGFSGELCEARLCPEGLYGIKCDKRCPCHLDNTHSCHPMSGECGCKPGWSGLYCNETCSPGFYGEACQQICSCQNGADCDSVTGRCACAPGFKGTDCSTPCPLGRYGINCSSRCGCKNDAVCSPVDGSCICKAGWHGVDCSIRCPSGTWGFGCNLTCQCLNGGACNTLDGTCTCAPGWRGAKCEFPCQDGTYGLNCAERCDCSHADGCHPTTGHCRCLPGWSGVHCDSVCAEGRWGPNCSLPCYCKNGASCSPDDGICECAPGFRGTTCQRICSPGFYGHRCSQTCPQCVHSSGPCHHITGLCDCLPGFTGALCNEVCPSGRFGKNCAGVCTCTNNGTCNPIDRSCQCYPGWIGSDCSQPCPPAHWGPNCIHTCNCHNGAFCSAYDGECKCTPGWTGLYCTQRCPLGFYGKDCALICQCQNGADCDHISGQCTCRTGFMGRHCEQKCPAGTYGYGCRQICDCLNNSTCDHITGTCYCSPGWKGARCDQAGVIIVGNLNSLSRTSTALPADSYQIGAIAGIVVLVLVVLFLLALFIIYRHKQKRKESSMPAVTYTPAMRVINADYTIAETLPHSNGGNANSHYFTNPSYHTLSQCATSPHVNNRDRMTIAKSKNNQLFVNLKNVNPGKRGTLVDCTGTLPADWKQGGYLNELGAFGLDRSYMGKSLKDLGKNSEYNSSTCSLSSSENPYATIKDPPALLPKSSECGYVEMKSPARRDSPYAEINNSTPANRNVYEVEPTVSVVQGVFSNSGHVTQDPYDLPKNSHIPCHYDLLPVRDSSSSPKREDGGGSNSTSSNSTSSSSSSSE
Take B2: in the experiment on DYT-TOR1A MEF EVs, the “RTV Corrective Direction” value is “YES” and the “DYT + RTV/DYT Cohen's d” value was −2.80. Besides, in the experiment on WT MEF EVs, the “WT + ISRIB/WT Cohen's d” value amounted to 1.37; the “ISRIB and DYT Parallel Direction” value was “YES”.

B3: Picalm (protein, UniProt Q7M6Y3 2-660, looked up)
Phosphatidylinositol-binding …: SGQSLTDRITAAQHSVTGSAVSKTVCKATTHEIMGPKKKHLDYLIQCTNEMNVNIPQLADSLFERTTNSSWVVVFKSLITTHHLMVYGNERFIQYLASRNTLFNLSNFLDKSGLQGYDMSTFIRRYSRYLNEKAVSYRQVAFDFTKVKRGADGVMRTMNTEKLLKTVPIIQNQMDALLDFNVNSNELTNGVINAAFMLLFKDAIRLFAAYNEGIINLLEKYFDMKKNQCKEGLDIYKKFLTRMTRISEFLKVAEQVGIDRGDIPDLSQAPSSLLDALEQHLASLEGKKIKDSTAASRATTLSNAVSSLASTGLSLTKVDEREKQAALEEEQARLKALKEQRLKELAKKPHTSLTTAASPVSTSAGGIMTAPAIDIFSTPSSSNSTSKLPNDLLDLQQPTFHPSVHAMSAAPQGASTWGDPFSATLDAVEDAIPSLNPFLTKSSGDVHLPIASDVSTFTTRTPTHEMFVGFSPSPVAQPHSSAGLNVDFESVFGNKSTNVAVDSGGFDELGGLLKPTVASQNQSLPVAKLPPNKLVSDDLDSSLANLVGNLGIGNGTTKNDVSWSQPGEKKLTGGSNWQPKVAPTTAWSAATMNGMHFPQYAPPVMAYPATTPTGMIGYGIPPQMGSVPVMTQPTLIYSQPVMRPPNPFGPVSGAQIQFM
Consider B3, for which, in the experiment on DYT-TOR1A MEF EVs, the “RTV Corrective Direction” value is recorded as “YES” and the “DYT + RTV/DYT Cohen's d” value was determined as 2.85. Further, in the experiment on WT MEF EVs, the “WT + ISRIB/WT Cohen's d” value is −1.01; the “ISRIB and DYT Parallel Direction” value is recorded as “YES”.

B4: Copg2 (protein, UniProt Q9QXK3 1-871, looked up)
Coatomer subunit gamma-2: MIKKFDKKDEESGSGSNPFQHLEKSAVLQEARIFNETPINPRRCLHILTKILYLLNQGEHFGTMEATEAFFAMTRLFQSNDQTLRRMCYLTIKEMATISEDVIIVTSSLTKDMTGKEDVYRGPAIRALCRITDGTMLQAVERYMKQAIVDKVSSVASSALVSSLHMMKISYDVVKRWINEAQEAASSDNIMVQYHALGVLYHLRKNDRLAVSKMLNKFTKSGLKSQFAYCMLIRIASRLLKESEDGHESPLFDFIESCLRNKHEMVIYEAASAIIHLPNCTARELAPAVSVLQLFCSSPKPALRYAAVRTLNKVAMKHPSAVTACNLDLENLITDSNRSIATLAITTLLKTGSESSVDRLMKQISSFVSEISDEFKVVVVQAISALCHKYPRKHSVMMTFLSNMLRDDGGFEYKKAIVDCIISIVEENPESKEAGLAHLCEFIEDCEHTVLATKILHLLGKEGPRTPVPSKYIRFIFNRVVLENEAVRAAAVSALAKFGAQNESLLPSILVLLQRCMMDTDDEVRDRATFYLNVLQQRQMALNATYIFNGLTVSIPGMEKALHQYTLEPSEKPFDMKSIPLAMAPVFEQKSEITLVTPKPEKLAPSRQDIFQEQLAAIPEFMNLGPLFKSSEPVQLTEAETEYFVRCVKHMFTDHIVFQFDCTNTLNDQLLEKVTVQMEPSDSYEVLCCIPAPSLPYNQPGICYTLVRLPDEDPTAVAGTFSCTMKFTVRDCDPNTGVPDEDGYDDEYVLEDLEVTVSDHIQKILKPNFAAAWEEVGDAFEKEETFALSSTKTLEEAVNNIITFLGMQPCERSDKVPENKNSHSLYLAGVYRGGYDLLVRSRLALADGVTMQVTVRSKERTPVDVILASVG
As for B4, in the experiment on DYT-TOR1A MEF EVs, the “RTV Corrective Direction” value was “YES” and the “DYT + RTV/DYT Cohen's d” value is given as 3.05. For the same molecule, in the experiment with WT MEF EVs, the “WT + ISRIB/WT Cohen's d” value was −0.44; the “ISRIB and DYT Parallel Direction” value is “YES”.

B5: Vps26b (protein, UniProt Q8C0E2 1-336, looked up)
Vacuolar protein …: MSFFGFGQSVEVEILLNDAESRKRAEHKTEDGKKEKYFLFYDGETVSGKVSLSLKNPNKRLEHQGIKIEFIGQIELYYDRGNHHEFVSLVKDLARPGEITQSQAFDFEFTHVEKPYESYTGQNVKLRYFLRATISRRLNDVVKEMDIVVHTLSTYPELNSSIKMEVGIEDCLHIEFEYNKSKYHLKDVIVGKIYFLLVRIKIKHMEIDIIKRETTGTGPNVYHENDTIAKYEIMDGAPVRGESIPIRLFLAGYELTPTMRDINKKFSVRYYLNLVLIDEEERRYFKQQEVVLWRKGDIVRKSMSHQAAIASQRFEGTTSLGEVRTPGQLSDNNSRQ
Consider B5, for which, in the experiment with DYT-TOR1A MEF EVs, the “RTV Corrective Direction” value is “YES” and the “DYT + RTV/DYT Cohen's d” value was determined as 3.01. For the same molecule, in the experiment with WT MEF EVs, the “WT + ISRIB/WT Cohen's d” value is reported as −1.43; the “ISRIB and DYT Parallel Direction” value is listed as “YES”.
